# According to IntAct's records for PubMed 20871592:
# B1: M-phase phosphoprotein 8 (Homo sapiens), Q99549 (parent)
# chain: MEQVAEGARVTAVPVSAADSTEELAEVEEGVGVVGEDNDAAARGAEAFGDSEEDGEDVFEVEKILDMKTEGGKVLYKVRWKGYTSDDDTWEPEIHLEDCKEVLLEFRKKIAENKAKAVRKDIQRLSLNNDIFEANSDSDQQSETKEDTSPKKKKKKLRQREEKSPDDLKKKKAKAGKLKDKSKPDLESSLESLVFDLRTKKRISEAKEELKESKKPKKDEVKETKELKKVKKGEIRDLKTKTREDPKENRKTKKEKFVESQVESESSVLNDSPFPEDDSEGLHSDSREEKQNTKSARERAGQDMGLEHGFEKPLDSAMSAEEDTDVRGRRKKKTPRKAEDTRENRKLENKNAFLEKKTVPKKQRNQDRSKSAAELEKLMPVSAQTPKGRRLSGEERGLWSTDSAEEDKETKRNESKEKYQKRHDSDKEEKGRKEPKGLKTLKEIRNAFDLFKLTPEEKNDVSENNRKREEIPLDFKTIDDHKTKENKQSLKERRNTRDETDTWAYIAAEGDQEVLDSVCQADENSDGRQQILSLGMDLQLEWMKLEDFQKHLDGKDENFAATDAIPSNVLRDAVKNGDYITVKVALNSNEEYNLDQEDSSGMTLVMLAAAGGQDDLLRLLITKGAKVNGRQKNGTTALIHAAEKNFLTTVAILLEAGAFVNVQQSNGETALMKACKRGNSDIVRLVIECGADCNILSKHQNSALHFAKQSNNVLVYDLLKNHLETLSRVAEETIKDYFEARLALLEPVFPIACHRLCEGPDFSTDFNYKPPQNIPEGSGILLFIFHANFLGKEVIARLCGPCSVQAVVLNDKFQLPVFLDSHFVYSFSPVAGPNKLFIRLTEAPSAKVKLLIGAYRVQLQ
# Variants of: B1
# Conditions: with h31_human H3C1, P68431
row,Variant,effect of a mutation on the interaction
1,W80A,disrupting interaction
